From paper doi:10.1101/2025.05.21.655409 come the findings set out here.

Assay [1] addresses Xenopus laevis histone H3 labelled with Oregon Green 488 at C110 (Xenopus laevis) (UniProt P84233). Put plainly: fluorescence polarisation; fluorescence anisotropy; 5 nM OG488-labeled histone, ligase complex titrated; 20 mM Tris-HCl, 10 mM NaCl, 5% glycerol, 1 mM DTT; BSA-coated 96-well plates, 25 °C, 1.5-2.5 h.
Assay [2] addresses Xenopus laevis histone H4 V22C labelled with Oregon Green 488 (Xenopus laevis) (UniProt P62799). Described as above.

Usually Kd stands for the equilibrium constant for the complex coming apart. With “ASB9-ELOB/C-CUL5-RBX2 (ASB9-CRL), not neddylated (from UniProt Q96DX5 1-294; Q15370 1-118; Q15369 1-112; Q93034 1-780; Q9UBF6 1-113) (complex)”, the figures for the Kd in assay [1] and in assay [2] were 187 nM and 79.7 nM, respectively.
Consider “CUL5-RBX2 (from UniProt Q93034 1-780; Q9UBF6 1-113) (complex)”, for which, in assay [1], the fold lower affinity than ASB9-CRL amounted to 2 fold and the fold lower affinity than NEDD8-ASB9-CRL amounted to 4 fold. In assay [2], this substance returned a fold lower affinity than ASB9-CRL of 2 fold and a fold lower affinity than NEDD8-ASB9-CRL of 4 fold.
Consider “NEDD8-ASB9-ELOB/C-CUL5-RBX2 (NEDD8-ASB9-CRL) (from UniProt Q96DX5 1-294; Q15370 1-118; Q15369 1-112; Q93034 1-780; Q9UBF6 1-113; Q15843 1-76) (complex)”, for which the Kd in assay [1] was 78.2 nM; in assay [2] it was 48.4 nM.
